Results: US20250027068

Each protein was assayed against pooled human IgG.

Row | Protein | Enzyme Activity Endpoint Assay (purified): Fab'2 | Enzyme Activity Endpoint Assay (purified): Fc | Enzyme Activity Endpoint Assay (purified): IgG | Enzyme Activity Endpoint Assay (purified): scIgG | Enzyme Activity Endpoint Assay: Fab′2 | Enzyme Activity Endpoint Assay: Fc | Enzyme Activity Endpoint Assay: IgG | Enzyme Activity Endpoint Assay: scIgG
1 | PRT-249 (protein) MVTSVWTKGVTPPTNFTYGEDVLHAPYVANQGWYDITKTFNGKDDLLCGAATAGNMLHWWFDQNKEQIENYLKKHPEKQKINFNGEQMFDVKEAIDTKDSQLDSKLFDYFKEKAFPNLSTKHLGVFPDHVIDMFINGYRLSLLNHGPTPVKRGSKDPRGGIFDAVFTRGDQSKLLTNRHDFKEKTLKEISDLIKQELTEGKALGISHTYANVRINHVINLWGADFDAEGNLEAIYVTDSDSNPSIGMKKYFVGVNSSGKVAISAKEIEEDNIGAQVLGLFTLSTGQDIWNQTN | 818 ng/µL | 457 ng/µL | 0 ng/µL | 0 ng/µL | – | – | – | –
2 | PRT-257 (protein) MVTSVWTKGVTPPTNFTYGEDVLHAPYVANQGWYDITKLFNGKDDLLCGAATAGNMLHWWFDQNKEQIENYLKKHPEKQKINFNGEQMFDVKEAIDTKDSQLDSKLFDYFKEKAFPYLSTKHLGVFPDHVIDMFINGYRLSLTNHGPTPVKRGSKDPRGGIFDAVFTRGDQSKLLTNRHDFKEKTLKEISDLIKQELTEGKALGISHTYANVRINHVINLWGADFDAEGNLEAIYVTDSDSNPSIGMKKYFVGVNSSGKVAISAKEIEEDNIGAQVLGLFTLSTGQDIWNQTN | 1050 ng/µL | 439 ng/µL | 0 ng/µL | 0 ng/µL | – | – | – | –
3 | PRT-265 (protein) MVTSVWTKGVTPPTNFTYGEDVLHAPYVANQGWYDITKLFNGKDNLLCGAATAGNMLHWWFDQNKEQIENYLKKHPEKQKINFNGEQLFDVKEAIDTKDSQLDSKLFEYFLEKAFPYLSTKHLGVFPDHVIDMFINGYRLSLTNHGPTPVKRGSKDKRGGIFDAVFTRGVQSKLLTNRHDFKEKTLKEISDLIKQELTEGKALGISHTYANVRINHVINLWGADFDAEGNLEAIAVTDSDTNASIGMKKYFVGVNSSGKVAISAKEIEEDNIGAQVLGLFTLSTGQDIWNQTN | 0 ng/µL | 3 ng/µL | 1640 ng/µL | 0 ng/µL | – | – | – | –
4 | PRT-23 (protein) MANQEIRYSEVTPYHVTSVWTKGVTPPANFTQGEDVFHAPYVANQGWYDITKTFNGKDDLLCGAATAGNMLHWWFDQNKDQIERYLKEHPEKQKINFNGEQMFDVKEAIDTKNSQTDSKLFEYFKEKAFPYLSTKHLGVFPDHVIDMFINGYRLSLTNHGPTPVKEGSKDPRGGIFDAVFTRGDQSKLLTSRHDFKEKNLKEISDLIKKELTEGKALGLSHTYANVRINHVINLWGADFDSNGNLEAIYVTDSDSNASIGMKKYFVGVNSAGKVAISAKEIKEDNIGAQVLGLFTLSTGQDIWNQTN | – | – | – | – | 45 ng/µL | 125 ng/µL | 12 ng/µL | 19 ng/µL
5 | PRT-273 (protein) MVTSVWTKGVTPPTDFIYGEDVLHAPYKAGQGWYDITKTFNGKDNLLCGAATAGNMLHWWFDQNKEQIENYLKKHPEKQKIIFNNQELFDLKAAIDTKDSQLDSKLFEYFKEKAFPNLSTKHLGVFPDHVIDMFINGYRLSLLNHGPTPVKRGSKDKRGGIFDAVFTRGVQSKLLTNRHDLKNKTLKEISDLIKQELTEGKALGISHTYANVRINHVINLWGADFDAEGNLEAIYVTDSDTNASIGMKKYFVGVNSSGKVAISAKEIEEDNIGAQVLGLFTLSTGQDIWNQTN | 782 ng/µL | 429 ng/µL | 0 ng/µL | 0 ng/µL | – | – | – | –
6 | PRT-281 (protein) MVTSVWTKGVTPPAKFTQGEDVFHAPYVANQGWYDITKTFNGKDDLLCGAATAGNMLHWWFDQNKEKIEAYLKKHPDKQKIMFGDQELLDVRKVINTKGDQTNSELFNYFRDKAFPNLSARRIGVMPDLVLDMFINGYYLNVYKTQTTDVNRTYQEKDRRGGIFDAVFTRGDQSKLLTSRHDFKEKNLKEISDLIKKELTEGKALGLSHTYANVRIGHVINLWGADFDSNGNLKAIYVTDSDSNASIGMKKYFVGVNSSGKVAISAKEIKEDNIGAQVLGLFTLSTGQDSWNQTN | 673 ng/µL | 317 ng/µL | 347 ng/µL | 29 ng/µL | – | – | – | –
7 | PRT-289 (protein) MVTSVWTKGVTPPADFTQGEDVFHAPYVANQGWYDITKTFNGKDDLLCGAATAGNMLHWWFDQNKEYIEAYLKKHPEKQKIMFGDQELLDVRKAINTKGSQKNSELFNYFRDKAFPNLSARRLGVMPDLVLDMFINGYYLNVTKTQTTDVNRTYQEKDKRGGIFDAVFTRGDQSKLLTSRHDFKEKGLKEISDLIKQELTEGKALGLSHTYANVGINHVINLWGADFDSDGNLKAIYVTDSDSNASIGMKKYFVGVNSSGKVAISAKEIKEDNIGAQVLGLFTLSTGQDIWNQTN | 581 ng/µL | 304 ng/µL | 90 ng/µL | 114 ng/µL | – | – | – | –
8 | PRT-297 (protein) MVTSVWTKGVTPPADFTQGEDVFHAPYDANQGWYDITKEFNGKDDLLCGAATAGNMLHWWFDQNKEYIEAYLKKHPEKQKIMFGDQELLDVRKAINTKGSQKNSELFNYFRDKAFPNLSARRLGVMPDLVLDMFINGYYLNVTKTQTTDVNRTYQEKDKRGGIFDAVFTRGDQSKLLTSRHDFKEKGLKEISDLIKQELTEGKALGLSHTYANVRIGHVINLWGADFDSDGNLKAIYVTDSDSNASIGMKKYGVGVNSAGKVAISAKEIKEDNIGAQVLGLFTLSTGQDIWNQTN | 484 ng/µL | 345 ng/µL | 338 ng/µL | 0 ng/µL | – | – | – | –
9 | PRT-305 (protein) MVTSVWTKGVTPPTDFIKGEDVFHAPYKAGQGWYDITKEFNGKDDLLCGAATAGNMLHWWFDQNKEYIEAYLKKHPEKQKIMFGDQELLDVRKAINTKGSQKNSELFNYFRDKAFPNLSARRLGVMPDLVLDMFINGYYLNVTKTQTTDVNRTYQEKDKRGGIFDAVFTRGDQSKLLTSRHDFKEKGLKEISDLIKQELTEGKALGLSHTYANVRIGHVINLWGADFDSDGNLKAIYVTDSDSNASIGMKKYGVGVNSAGKVAISAKEIKEDNIGAQVLGLFTLSTGQDIWNQTN | 786 ng/µL | 359 ng/µL | 91 ng/µL | 0 ng/µL | – | – | – | –
10 | PRT-313 (protein) MQITSVWTKGVTPLTPEQFRENNEDVIHAPYLAHQGWYDITKAFDGKDNLLCGAATAGNMLHWWFDQNKTEIEAYLSKHPEKQKIIFGNQELFDLKAAIDTKDSQTNSQLFDYFRDKAFPNLSARQLGVMPDLVLDMFINGYYLNVGKTQSTDVNRPYQDKDKRGGIFDAVFTRGDQTTLLTARHDLKNKGLNDISTIIKQELTEGRALALSHTYANVSISHVINLWGADFNAEGELEAIYVTDSDANPSIGMKKYFVGRNAHGHVAISAKKIEGENIGAQVLGLFTLSSGKDIWQKLS | 409 ng/µL | 303 ng/µL | 114 ng/µL | 328 ng/µL | – | – | – | –
11 | PRT-321 (protein) MTITSVWTKGVTPPTPEDFRENNEDVLHAPYVANQGWYDITKTFDGKDNLLCGAATAGNMLHWWFDQNKEEIERYLKKHPEKQKIIFGNQELFDVKAAIDTKDSQTNSKLFDYFRDKAFPNLSARQLGVMPDLVLDMFINGYYLNLPKTQSTDVNRPYQDKDKRGGIFDAVFTRGDQTTLLTARHDLKNKGLNEISDLIKQELTEGKALALSHTYANVRINHVINLWGADFDAEGNLIAIYVTDSDANASIGMKKYAVGVNANGKVAISAKKIEGDNIGAQVLGLFTLSTGQDQWQKLS | 469 ng/µL | 337 ng/µL | 139 ng/µL | 214 ng/µL | – | – | – | –
12 | PRT-329 (protein) MTITSVWTKGVTPPTPEDFRENNEDVLHAPYVANQGWYDITKTFDGKDNLLCGAATAGNMLHWWFDQNKEEIERYLKKHPEKQKIIFNNQELFDVKAAIDTKDSQTNSKLFNYFRDKAFPGLSARQLGVFPDLVLDMFINGYYLNLGKTQSTDVNRPYQDKDKRGGIFDAVFTRGVQTTLLTARHDLKNKGLNEISDLIKQELTEGKALALSHTYANVRINHVINLWGADFDAEGNLIAIYVTDSDANASIGMKKYFVGRNANGKVAISAKKIEGDNIGAQVLGLFTLSLGQDIWQKLS | 928 ng/µL | 406 ng/µL | 0 ng/µL | 0 ng/µL | – | – | – | –
13 | PRT-242 (protein) MVTSVWTKGVTPPANFTQGEDVFHAPYVANQGWYDITKTFNGKDDLLCGAATAGNMLHWWFDQNKDQIKRYLEEHPEKQKINFNGEQMFDVKEAIDTKNHQLDSKLFDYFKEKAFPNLSTKHLGVFPDHVIDMFINGYRLSLLNHGPTPVKEGSKDPRGGIFDAVFTRGDQSKLLTSRHDFKEKNLKEISDLIKKELTEGKALGLSHTYANVRINHVINLWGADFDSNGNLKAIYVTDSDSNPSIGMKKYFVGVNSSGKVAISAKEIKEDNIGAQVLGLFTLSTGQDSWNQTN | 1030 ng/µL | 418 ng/µL | 0 ng/µL | 0 ng/µL | – | – | – | –
14 | PRT-250 (protein) MVTSVWTKGVTPPTNFTYGEDVLHAPYVANQGWYDITKLFNGKDDLLCGAATAGNMLHWWFDQNKEQIENYLKKHPEKQKINFNGEQMFDVKEAIDTKDSQLDSKLFDYFKEKAFPNLSTKHLGVFPDHVIDMFINGYRLSLLNHGPTPVKRGSKDPRGGIFDAVFTRGDQSKLLTNRHDFKEKTLKEISDLIKQELTEGKALGISHTYANGRINHVINLWGADFDAEGNLEAIYVTDSDSNPSIGMKKYFVGVNSSGKVAISAKEIEEDNIGAQVLGLFTLSTGQDIWNQTN | 313 ng/µL | 310 ng/µL | 86 ng/µL | 454 ng/µL | – | – | – | –
